Tested on: H3K4me2-biotin peptide (1ARTKme2QTARKSTGGKAPRKQLYKbiotin)
Sequence (chain, as listed by the source): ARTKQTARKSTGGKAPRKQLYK

GST-LSD1 (prepared in-house)
shift of the mass spectra after the demethylase assay (MassSQUIRM, MALDI mass spectrometry): Upon addition of LSD1, we observed a shift of spectra to greater mass, indicating a mixed population of methylation states

Source: patent US20120142040
